In PMC10080908 (BMC Biology, 2023):

What was measured:
[1] = target: T1, UBXN7-UAS recombinant protein (human, UniProt O94888 94-284); test: pull-down; in vitro: GST-RING domains on beads with UBE2D2, with or without UBXN7-UAS; Coomassie staining; settings: both partners purified
T1 construct: UAS domain of human UBXN7 (aa 94-284); also called UAS domain; source: E. coli BL21, purified (Glutathione Sepharose, released by GST-3C protease)
T1 sequence (looked up): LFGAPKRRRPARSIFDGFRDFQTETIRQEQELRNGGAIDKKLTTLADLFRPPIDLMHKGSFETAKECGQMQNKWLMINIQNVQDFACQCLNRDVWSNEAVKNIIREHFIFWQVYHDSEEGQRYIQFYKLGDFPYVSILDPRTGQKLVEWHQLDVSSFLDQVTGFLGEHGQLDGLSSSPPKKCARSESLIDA

[2] = target: T2, UBE2D2 (human, UniProt P62837 1-147); test: as above; settings: both partners purified
T2 construct: UBE2D2 without GST; probably released from GST-UBE2D2 by GST-3C protease as told in general for the PGEX4T3-3C constructs; also called recombinant UBE2D2; source: recombinant

- binding result [1]: binds
- binding result [2]: binds
B1: GST-TOPORS-RING (domain or fragment, human, UniProt Q9NS56 68-176, looked up)
chain: MASAAKEFKMDNFSPKAGTSKLQQTVPADASPDSKCPICLDRFDNVSYLDRCLHKFCFRCVQEWSKNKAECPLCKQPFDSIFHSVRAEDDFKEYVLRPSYNGSFVTPDR
notes: human TOPORS-RING (aa 68-176); the methods tell its cloning into p3xFlag-CMV-10 only, not into the GST vector; also called minimal RING domain of TOPORS; TOPORS RING domain; source: recombinant, on Glutathione Sepharose
